± gives the uncertainty stated by the source.

This data set can be described thus: amyloid nucleation score (Sup35N fusion, yeast selection) (log enrichment); library NNK1; higher = more nucleation; inactive = no reads after selection. In outline:
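The nucleation score equals the log enrichment of output over input reads from DiMSum, centred on the mode score of non-aggregating sequences. It was computed only for sequences with 100 or more input reads. The reads came from Illumina sequencing of plasmid inserts from psi-negative yeast expressing Sup35N fused to peptides of 20 random codons, induced with 100 μM copper sulfate for 24 hours and grown 7 days at 30°C without adenine and uracil.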
LVNGTMFINPCYVQGRCKEM: the amyloid nucleation score stood at 2.27 ± 0.12.
Next, LVNRVKRCAMNVHLSIGGDR: -0.479 ± 0.44; LVPPVFRP: -1.11 ± 1.1; LVPWGSFFALA: -0.146 ± 0.97.
Next, LVQVWLKN: 0.43 ± 0.34; LVSQLSFACN: 0.92 ± 0.83.
The same measure for LVVLSTVDA: -0.279 ± 0.67.
As to LVVNEFALVNKPDINFCLPQ, the amyloid nucleation score is 4.56 ± 0.092.
As to LVWRFS, the amyloid nucleation score turned out to be 1.56 ± 0.28.
The same measure for LWDIFFRSLSVLAYNIKMFS: -0.552 ± 1.
The same measure for LWFDYFPF: -0.096 ± 0.43; for LWFINVLNK: 5.103 ± 0.049.
Next, LWGIMYTM: -0.026 ± 0.93; LWHFWGYGGALP: -0.738 ± 0.75; LWLTFFSQ: 2.35 ± 0.11.
For the substance LWNLVLKCD, the amyloid nucleation score was -0.215 ± 0.29.
Regarding LWRRWNCFT, the amyloid nucleation score result was “inactive”.
In turn, LWSLVCSELCWDVLFNALPG yielded an amyloid nucleation score of -1.03 ± 0.71.
Next, LWSVKEGWGRPEAGHRQLWG: -0.413 ± 0.52.
The same measure for LWTLVQTASSTWALLTGTTN: -0.066 ± 0.65; for LWVNTDSSLECHRWLRVIV: 1.2 ± 0.37.
Next, LYCMGVLPSLLAISMVWVRG: 2.94 ± 0.2; LYDFINYG: -0.592 ± 1.2.
Substance LYEAMPKTLAGIWSTPNMCV yielded an amyloid nucleation score of -0.507 ± 0.93.
The same measure for LYFVLPTNKLPDRSY: -0.403 ± 0.84; for LYFVSSAFSSQS: 0.014 ± 0.27.
Next, LYGPQSPGRSPVSTFGRGRF: 0.321 ± 0.4.
For LYHGVYPKFLYKLVVESSLS, the amyloid nucleation score was -1.79 ± 1.7.
The same measure for LYHSTLYLNVCYTYHSAGGN: 1.24 ± 0.21.
Take LYICPHYDYWLCEQYMHWSP: the amyloid nucleation score turned out to be 0.69 ± 0.35.
Next, LYKKICKALSYIMDLTRVLP: -1.54 ± 2.1; LYLFDPTNQKRFEVWKWK: 0.063 ± 0.49.
Next, LYLVILVELMVYSKWCIKSP: 0.414 ± 0.36; LYMICGVYCLDSGIRTMRTF: 5.51 ± 0.067.
Next, LYRFNF: 0.223 ± 0.45.
Substance LYRRGTRPPG returned an amyloid nucleation score of -1.28 ± 2.4.
Next, LYRVTYSNACMFGVVG: 0.695 ± 0.54; LYSCMRVVATATVSGGLVIE: -0.843 ± 0.69.
The same measure for LYSLVGCWTLCLNVSCFEWL: 4.93 ± 0.064; for LYTIRTYPSLLKCDSPLN: -1.01 ± 0.78.
The same measure for LYTNSLRF: -0.419 ± 0.64; for LYVHSFFRFMWSDKVLLSKT: 0.856 ± 0.56; for MACRSPEGLEYMKN: 0.209 ± 0.46.
In turn, MAGYL registered an amyloid nucleation score of -0.078 ± 0.48.
Next, MAICSGMTSWAVLLEVWN: 0.504 ± 0.57.
Regarding MCNDGSYYAILACGVSLRVL, the amyloid nucleation score entry is “inactive”.
As for MCPTLVLSA, the amyloid nucleation score result was “inactive”.
Next, MCRLTPRIITDY: 0.244 ± 0.28; MCSLYFLYGAGVSCGSVLNV: 0.063 ± 0.4; MDCTFINGFRVFNLSNSR: 7.967 ± 0.059.
The same measure for MDCWENVIRQKASSSGWLEN: -0.725 ± 0.52.
In turn, MDKLASLLSSKGCAIKGLRS registered an amyloid nucleation score of -2.19 ± 1.3.
Next, MDLAYMFKLCIGVESM: “inactive”; MDSCFVLAHVAGNRMVLWNA: 0.268 ± 0.43.
The same measure for MDSTDWRVLLGRSMGWS: -0.596 ± 0.47; for MEGRVMGKRVAVY: -0.155 ± 0.59; for MEISLVINWSIIITKVCVCV: 0.497 ± 0.33.
The same measure for MEPLVTQCRHKG: -1.31 ± 1.1.
Substance MERTWFG registered an amyloid nucleation score of 0.276 ± 0.3.
Next, MEYTYVQTSKYKHERNATWC: 0.008 ± 0.97.
The same measure for MFGFHRNRDDHSCIHFTFK: 2.58 ± 0.15; for MFIASGV: -1.65 ± 0.84.
The same measure for MFNHV: 0.807 ± 1; for MFVNPALLLFL: 0.226 ± 1.6.
Consider MFYLTFYNLRIND, for which the amyloid nucleation score amounted to 6.01 ± 0.061.
Substance MFYSFNDVGWFAFRFSEIGV yielded an amyloid nucleation score of -0.539 ± 0.41.
The same measure for MGAWINYIAPTRYYLMDFFW: -1.7 ± 2.4; for MGFVGPENAKDYCSRGV: 0.357 ± 0.5; for MGGLRVYRPCVER: -0.437 ± 0.71.
The same measure for MGHVLGVYKSP: 1.2 ± 0.46.
MGLGVRVEKSSCACG yielded an amyloid nucleation score of 0.841 ± 0.37.
Next, MGRLRARRSLVLVA: “inactive”; MGTDRMCHS: 0.328 ± 0.97; MGYRDNLSF: 0.915 ± 0.53.
In turn, MHGSGLHSDSLGPTV yielded an amyloid nucleation score of 0.565 ± 0.69.
The same measure for MHSPRGLE: 1.07 ± 0.79; for MHWLRGVRS: 0.082 ± 0.47.
The same measure for MIFSHETSRVIGDPWGPWN: 0.056 ± 0.88.
Next, MKIVNVHAWATQLARGDICE: 0.745 ± 0.83; MKLRVDLFSYGRCLCEQ: -0.021 ± 0.25; MKRDSFPLFNFCLA: 0.137 ± 0.5.
For MKRTFRTLF, the amyloid nucleation score is 0.57 ± 0.41.
Next, MKRVWSYIAGKNARNLKGRL: 0.174 ± 0.41; MKSALKALTEHSPQSYDWCR: -0.4 ± 0.61.
The same measure for MLARKRMLNLLLRGWAYSWT: 0.09 ± 0.49; for MLDFTIQGLKSCWISVSLFF: “inactive”.
For MLIRVISDVLPG, the amyloid nucleation score stood at 0.224 ± 0.5.
As for MLPLCMSAIRRVKLRSPSEY, the amyloid nucleation score came out at 0.151 ± 0.52.
Take MLQCYLLFARYLLRNLSWGW: the amyloid nucleation score is 0.59 ± 0.62.
Substance MLSTTLALLTERSFGAY gave an amyloid nucleation score of 0.021 ± 0.39.
Next, MLTECSRFLNVFGVGEHEVN: -0.162 ± 0.58; MLTNVSNICYWNDVVGDSLA: 0.838 ± 0.28; MLTPDLSSDLDILRPTSPLT: 0.879 ± 0.51.
For the substance MLVHYVAFVFNMSTRCNCSE, the amyloid nucleation score turned out to be 6.253 ± 0.046.
Substance MLVLRMYYTRNS had an amyloid nucleation score of 2.24 ± 0.23.
Next, MLVYYNDKSVFHRFVLLRN: 0.644 ± 0.85; MMGGSRWTCCYTFDFWSCWD: 4.27 ± 0.1; MMLSLISVQV: 0.379 ± 0.68.
Next, MMPSECMEFLMCLWFGSGSD: -0.722 ± 0.55.
The substance MMSSFDVWDS displayed an amyloid nucleation score of -0.077 ± 0.73.
The same measure for MNFDCFPNSL: 1.22 ± 0.35; for MNIVIHIPNMRMAAKD: 7.17 ± 0.08; for MNKQAFNGRM: “inactive”.
Next, MNLRETSAFSPCNEVL: -0.063 ± 1.4; MNTWDMSLIPWSLARWVNTA: 0.063 ± 0.4.
MNVFVSRNYVYLKYEFRSLA displayed an amyloid nucleation score of 6.642 ± 0.051.
Regarding MPEILSVRSF, the amyloid nucleation score was -0.943 ± 0.32.
For the substance MPLKVSSMDLGRIKE, the amyloid nucleation score was -0.333 ± 0.41.
Next, MPLLYSVSHCWFKPAFGWAW: 0.442 ± 0.69; MPPMYGRGRPMNKIGVWDYA: 1.14 ± 0.51.
Next, MPRLTDRDKLCDFVNLQFIF: 6.7 ± 0.073; MQVVKIGKLFG: -0.112 ± 0.39.
The same measure for MQWWVGYAIITEN: -0.119 ± 0.56; for MRACRYANLNVSRNMWGICG: 0.743 ± 0.48; for MRDTFFLDRMQITLCSW: 0.306 ± 0.33.
For MRFKFMALGCEVLILGGFGS, the amyloid nucleation score came to 3.72 ± 0.16.
The same measure for MRNIVWCCSVVLCCLFGVLF: 0.385 ± 0.69; for MRNVTFTGLMLDSDWNVH: -0.338 ± 1.1.
The same measure for MRQWSGQG: 0.758 ± 1; for MRTPGCVMF: -0.44 ± 0.93; for MRYVMTFFFHSYKA: -1.15 ± 0.91.
Next, MSCTVHLGLFMESTNHYCMC: “inactive”; MSCYLQAFDITTTTNDASWW: -0.95 ± 1.6; MSDVCNVMKKVMQGTCFCGH: -0.293 ± 0.27.
The substance MSIQCTSALGPL displayed an amyloid nucleation score of 2.13 ± 0.35.
Next, MSKYALNLAMVDRGLSKDQN: -0.898 ± 1.6; MSLDAFV: “inactive”.
Next, MSLLALWCLSVRCTVVLVRT: -0.003 ± 0.48; MSMYYISSCIISLSQVGMYV: 1.26 ± 0.38; MSNMHNYLRLIWDTVCIQF: -0.083 ± 0.77.
Next, MSRIEGHRLDVLSRHFR: -0.046 ± 0.32.
The substance MSVNSRNMNKYLFWNKL registered an amyloid nucleation score of -0.029 ± 0.3.
Take MSYIQRMGVYLTITGLRGMK: the amyloid nucleation score was -0.527 ± 1.
As for MTSLDFNYGISKLESSFYMY, the amyloid nucleation score is -0.739 ± 0.29.
The same measure for MTTRIFSLKIA: 0.066 ± 0.81.
The same measure for MTWIENKPLHNVRCRGIIAV: -0.12 ± 0.43; for MVAIMQISMGSAVFLYAR: 4.24 ± 0.097; for MVAIRWYRMGLDDMNSGTVN: 0.094 ± 0.27.
MVGYGECIDMWPMLVKVDVV displayed an amyloid nucleation score of -0.378 ± 0.69.
Substance MVIRYFCQESA returned an amyloid nucleation score of -0.799 ± 1.1.
Next, MVLTFAV: -1.36 ± 2.4; MVMMFTTDSMQAN: 0.906 ± 0.52; MVMNTKCE: -0.643 ± 0.55.

The record behind these values is the supplement of paper PMC12042874.
